T1: LRRC7, Q96NW7
T1 sequence (Q96NW7 1440-1537, limits assumed, looked up): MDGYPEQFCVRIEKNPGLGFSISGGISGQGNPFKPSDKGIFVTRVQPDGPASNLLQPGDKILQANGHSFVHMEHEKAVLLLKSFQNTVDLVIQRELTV

T2: DFNB31_1, Q9P202
T2 sequence (Q9P202 135-233, limits assumed, looked up): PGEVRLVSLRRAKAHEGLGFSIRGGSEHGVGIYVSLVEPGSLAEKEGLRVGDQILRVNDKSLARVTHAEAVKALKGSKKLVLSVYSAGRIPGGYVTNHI

T3: DLG3_3, Q92796
T3 sequence (Q92796 374-475, limits assumed, looked up): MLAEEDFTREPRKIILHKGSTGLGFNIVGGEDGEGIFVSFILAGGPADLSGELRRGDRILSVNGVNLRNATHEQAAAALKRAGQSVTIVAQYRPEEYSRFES

T4: SHANK1, Q9Y566
T4 sequence (Q9Y566 658-767, limits assumed, looked up): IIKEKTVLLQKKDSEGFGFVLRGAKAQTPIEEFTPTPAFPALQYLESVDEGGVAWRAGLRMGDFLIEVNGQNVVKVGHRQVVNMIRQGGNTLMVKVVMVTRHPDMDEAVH

T5: ARHGAP21, Q5T5U3
T5 sequence (Q5T5U3 45-169, limits assumed, looked up): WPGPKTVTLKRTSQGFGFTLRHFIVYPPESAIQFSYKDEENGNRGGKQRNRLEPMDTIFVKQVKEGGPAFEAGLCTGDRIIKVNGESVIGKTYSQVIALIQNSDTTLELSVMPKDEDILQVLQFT

T6: SNTG2, Q9NY99
T6 sequence (Q9NY99 68-166, limits assumed, looked up): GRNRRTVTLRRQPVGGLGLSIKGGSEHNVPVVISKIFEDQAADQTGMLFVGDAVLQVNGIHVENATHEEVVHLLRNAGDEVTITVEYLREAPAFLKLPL

T7: SYNJ2BP, P57105
T7 sequence (P57105 8-110, limits assumed, looked up): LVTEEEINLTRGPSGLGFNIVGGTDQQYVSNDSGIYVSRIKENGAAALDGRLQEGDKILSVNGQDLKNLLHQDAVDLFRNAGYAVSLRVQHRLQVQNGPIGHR

T8: MPP2, Q14168
T8 sequence (Q14168 180-250, limits assumed, looked up): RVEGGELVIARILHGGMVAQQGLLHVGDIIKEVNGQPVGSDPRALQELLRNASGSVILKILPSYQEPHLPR

T9: DLG3_2, Q92796
T9 sequence (Q92796 221-321, limits assumed, looked up): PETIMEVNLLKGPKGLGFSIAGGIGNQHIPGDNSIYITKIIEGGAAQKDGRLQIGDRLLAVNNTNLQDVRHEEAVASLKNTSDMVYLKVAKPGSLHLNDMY

T10: PTPN13_1, Q12923
T10 sequence (Q12923 1088-1188, limits assumed, looked up): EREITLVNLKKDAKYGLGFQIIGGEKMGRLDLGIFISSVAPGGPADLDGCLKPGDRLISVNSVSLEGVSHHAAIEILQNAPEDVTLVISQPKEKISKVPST

T11: SIPA1L2, Q9P2F8
T11 sequence (Q9P2F8 945-1036, limits assumed, looked up): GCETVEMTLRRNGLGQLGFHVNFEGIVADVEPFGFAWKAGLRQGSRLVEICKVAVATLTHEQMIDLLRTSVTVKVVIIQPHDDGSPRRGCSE

T12: TJP3_3, O95049
T12 sequence (O95049 375-456, limits assumed, looked up): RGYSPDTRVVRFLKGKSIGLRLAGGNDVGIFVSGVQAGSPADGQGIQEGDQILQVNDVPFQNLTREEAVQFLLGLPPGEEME


biological target: T1, LRRC7, Q96NW7; assay: holdup assay; parameters: key: below the threshold = too weak to quantify, mostly under pKd 3.1 to 4; details: plain residues with an end cap or a label only (N-terminal biotin on a linker: ttds)

**Q.** With RRVRKLPSTTL [RPS6KA1, Q15418] as the binder, how does the pKd read?
**A.** 3.55

biological target: T2, DFNB31_1, Q9P202; assay: holdup assay; parameters: key: below the threshold = too weak to quantify, mostly under pKd 3.1 to 4; details: plain residues with an end cap or a label only (N-terminal biotin on a linker: ttds)

**Q.** How did the pKd turn out when RRVRKLPSTTL [RPS6KA1, Q15418] was run?
**A.** 3.53

biological target: DLG4_2, P78352; assay: holdup assay; parameters: key: below the threshold = too weak to quantify, mostly under pKd 3.1 to 4; details: plain residues with an end cap or a label only (N-terminal biotin on a linker: ttds)
Sequence (P78352 155-259): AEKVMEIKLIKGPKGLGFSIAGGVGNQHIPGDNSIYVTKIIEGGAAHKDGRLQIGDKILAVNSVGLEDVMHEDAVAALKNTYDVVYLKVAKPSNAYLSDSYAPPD

**Q.** For RRVRKLPSTTL [RPS6KA1, Q15418], which pKd is on record?
**A.** below the threshold

biological target: NHERF4_2, Q86UT5; assay: holdup assay; parameters: key: below the threshold = too weak to quantify, mostly under pKd 3.1 to 4; details: plain residues with an end cap or a label only (N-terminal biotin on a linker: ttds)
Sequence (Q86UT5 220-308): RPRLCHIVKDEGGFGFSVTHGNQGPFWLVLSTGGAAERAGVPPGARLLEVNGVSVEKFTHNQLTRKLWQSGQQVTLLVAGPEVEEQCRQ

**Q.** How did the pKd turn out when RRVRKLPSTTL [RPS6KA1, Q15418] was run?
**A.** below the threshold

biological target: GRASP, Q7Z6J2; assay: holdup assay; parameters: key: below the threshold = too weak to quantify, mostly under pKd 3.1 to 4; details: plain residues with an end cap or a label only (N-terminal biotin on a linker: ttds)
Sequence (Q7Z6J2 96-193): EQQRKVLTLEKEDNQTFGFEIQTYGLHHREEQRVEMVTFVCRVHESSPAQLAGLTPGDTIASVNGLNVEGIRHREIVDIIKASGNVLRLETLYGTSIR

**Q.** With RRVRKLPSTTL [RPS6KA1, Q15418] as the binder, how does the pKd read?
**A.** 4.17

biological target: T3, DLG3_3, Q92796; assay: holdup assay; parameters: key: below the threshold = too weak to quantify, mostly under pKd 3.1 to 4; details: plain residues with an end cap or a label only (N-terminal biotin on a linker: ttds)

**Q.** Which pKd does the source give for RRVRKLPSTTL [RPS6KA1, Q15418] here?
**A.** below the threshold

biological target: T4, SHANK1, Q9Y566; assay: holdup assay; parameters: key: below the threshold = too weak to quantify, mostly under pKd 3.1 to 4; details: plain residues with an end cap or a label only (N-terminal biotin on a linker: ttds)

**Q.** RRVRKLPSTTL [RPS6KA1, Q15418] was tested. Which pKd did it give?
**A.** 4.17

biological target: T5, ARHGAP21, Q5T5U3; assay: holdup assay; parameters: key: below the threshold = too weak to quantify, mostly under pKd 3.1 to 4; details: plain residues with an end cap or a label only (N-terminal biotin on a linker: ttds)

**Q.** For RRVRKLPSTTL [RPS6KA1, Q15418], which pKd is on record?
**A.** below the threshold

biological target: T6, SNTG2, Q9NY99; assay: holdup assay; parameters: key: below the threshold = too weak to quantify, mostly under pKd 3.1 to 4; details: plain residues with an end cap or a label only (N-terminal biotin on a linker: ttds)

**Q.** For RRVRKLPSTTL [RPS6KA1, Q15418], which pKd is on record?
**A.** 4.54

biological target: AHNAK1, Q09666; assay: holdup assay; parameters: key: below the threshold = too weak to quantify, mostly under pKd 3.1 to 4; details: plain residues with an end cap or a label only (N-terminal biotin on a linker: ttds)
Sequence (Q09666 4-100): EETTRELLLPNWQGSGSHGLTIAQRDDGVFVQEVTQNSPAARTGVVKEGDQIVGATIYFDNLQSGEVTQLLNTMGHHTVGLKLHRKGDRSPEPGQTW

**Q.** How did the pKd turn out when RRVRKLPSTTL [RPS6KA1, Q15418] was run?
**A.** below the threshold

biological target: LNX1_2, Q8TBB1; assay: holdup assay; parameters: key: below the threshold = too weak to quantify, mostly under pKd 3.1 to 4; details: plain residues with an end cap or a label only (N-terminal biotin on a linker: ttds)
Sequence (Q8TBB1 371-470): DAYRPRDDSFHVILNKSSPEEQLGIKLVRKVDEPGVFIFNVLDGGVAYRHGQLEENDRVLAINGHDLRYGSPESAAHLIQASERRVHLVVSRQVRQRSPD

**Q.** With RRVRKLPSTTL [RPS6KA1, Q15418] as the binder, how does the pKd read?
**A.** 3.52

biological target: T7, SYNJ2BP, P57105; assay: holdup assay; parameters: key: below the threshold = too weak to quantify, mostly under pKd 3.1 to 4; details: plain residues with an end cap or a label only (N-terminal biotin on a linker: ttds)

**Q.** Which pKd does the source give for RRVRKLPSTTL [RPS6KA1, Q15418] here?
**A.** 3.82

biological target: Inadl_6, Q8NI35; assay: holdup assay; parameters: key: below the threshold = too weak to quantify, mostly under pKd 3.1 to 4; details: plain residues with an end cap or a label only (N-terminal biotin on a linker: ttds)
Sequence (Q8NI35 1058-1167): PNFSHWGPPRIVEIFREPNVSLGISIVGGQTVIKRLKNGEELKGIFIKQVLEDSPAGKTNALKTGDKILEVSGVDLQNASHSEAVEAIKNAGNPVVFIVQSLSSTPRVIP

**Q.** For RRVRKLPSTTL [RPS6KA1, Q15418], which pKd is on record?
**A.** below the threshold

biological target: PTPN3, P26045; assay: holdup assay; parameters: key: below the threshold = too weak to quantify, mostly under pKd 3.1 to 4; details: plain residues with an end cap or a label only (N-terminal biotin on a linker: ttds)
Sequence (P26045 505-587): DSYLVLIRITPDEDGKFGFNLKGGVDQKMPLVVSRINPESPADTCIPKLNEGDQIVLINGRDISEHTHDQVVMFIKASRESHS

**Q.** RRVRKLPSTTL [RPS6KA1, Q15418] was tested. Which pKd did it give?
**A.** 3.93

biological target: SCRIB_3, Q14160; assay: holdup assay; parameters: key: below the threshold = too weak to quantify, mostly under pKd 3.1 to 4; details: plain residues with an end cap or a label only (N-terminal biotin on a linker: ttds)
Sequence (Q14160 999-1103): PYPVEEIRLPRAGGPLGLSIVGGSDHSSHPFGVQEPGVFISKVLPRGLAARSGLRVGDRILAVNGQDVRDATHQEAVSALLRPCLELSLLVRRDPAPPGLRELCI

**Q.** How did the pKd turn out when RRVRKLPSTTL [RPS6KA1, Q15418] was run?
**A.** 4.36

biological target: T8, MPP2, Q14168; assay: holdup assay; parameters: key: below the threshold = too weak to quantify, mostly under pKd 3.1 to 4; details: plain residues with an end cap or a label only (N-terminal biotin on a linker: ttds)

**Q.** For RRVRKLPSTTL [RPS6KA1, Q15418], which pKd is on record?
**A.** below the threshold

biological target: T9, DLG3_2, Q92796; assay: holdup assay; parameters: key: below the threshold = too weak to quantify, mostly under pKd 3.1 to 4; details: plain residues with an end cap or a label only (N-terminal biotin on a linker: ttds)

**Q.** RRVRKLPSTTL [RPS6KA1, Q15418] was tested. Which pKd did it give?
**A.** below the threshold

biological target: SCRIB_1, Q14160; assay: holdup assay; parameters: key: below the threshold = too weak to quantify, mostly under pKd 3.1 to 4; details: plain residues with an end cap or a label only (N-terminal biotin on a linker: ttds)
Sequence (Q14160 718-814): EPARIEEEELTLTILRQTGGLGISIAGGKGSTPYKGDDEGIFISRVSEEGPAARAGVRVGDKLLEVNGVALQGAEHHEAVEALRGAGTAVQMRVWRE

**Q.** For RRVRKLPSTTL [RPS6KA1, Q15418], which pKd is on record?
**A.** 3.48

biological target: T10, PTPN13_1, Q12923; assay: holdup assay; parameters: key: below the threshold = too weak to quantify, mostly under pKd 3.1 to 4; details: plain residues with an end cap or a label only (N-terminal biotin on a linker: ttds)

**Q.** How did the pKd turn out when RRVRKLPSTTL [RPS6KA1, Q15418] was run?
**A.** below the threshold

biological target: FRMPD3, Q5JV73; assay: holdup assay; parameters: key: below the threshold = too weak to quantify, mostly under pKd 3.1 to 4; details: plain residues with an end cap or a label only (N-terminal biotin on a linker: ttds)
Sequence (Q5JV73 12-100): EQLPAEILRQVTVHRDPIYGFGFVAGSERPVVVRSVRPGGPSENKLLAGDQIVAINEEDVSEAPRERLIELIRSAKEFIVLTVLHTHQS

**Q.** Which pKd does the source give for RRVRKLPSTTL [RPS6KA1, Q15418] here?
**A.** below the threshold

biological target: NHERF2_2, Q15599; assay: holdup assay; parameters: key: below the threshold = too weak to quantify, mostly under pKd 3.1 to 4; details: plain residues with an end cap or a label only (N-terminal biotin on a linker: ttds)
Sequence (Q15599 142-238): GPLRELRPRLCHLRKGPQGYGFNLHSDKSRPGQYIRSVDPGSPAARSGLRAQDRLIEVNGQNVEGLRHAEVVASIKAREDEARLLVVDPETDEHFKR

**Q.** RRVRKLPSTTL [RPS6KA1, Q15418] was tested. Which pKd did it give?
**A.** 3.97

biological target: PDZRN4_1, Q6ZMN7; assay: holdup assay; parameters: key: below the threshold = too weak to quantify, mostly under pKd 3.1 to 4; details: plain residues with an end cap or a label only (N-terminal biotin on a linker: ttds)
Sequence (Q6ZMN7 213-318): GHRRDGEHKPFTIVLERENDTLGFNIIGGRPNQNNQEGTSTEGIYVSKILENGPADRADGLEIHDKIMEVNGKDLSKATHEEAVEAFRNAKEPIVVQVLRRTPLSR

**Q.** With RRVRKLPSTTL [RPS6KA1, Q15418] as the binder, how does the pKd read?
**A.** 4.13

biological target: T11, SIPA1L2, Q9P2F8; assay: holdup assay; parameters: key: below the threshold = too weak to quantify, mostly under pKd 3.1 to 4; details: plain residues with an end cap or a label only (N-terminal biotin on a linker: ttds)

**Q.** How did the pKd turn out when RRVRKLPSTTL [RPS6KA1, Q15418] was run?
**A.** below the threshold

biological target: DLG2_2, Q15700; assay: holdup assay; parameters: key: below the threshold = too weak to quantify, mostly under pKd 3.1 to 4; details: plain residues with an end cap or a label only (N-terminal biotin on a linker: ttds)
Sequence (Q15700 189-283): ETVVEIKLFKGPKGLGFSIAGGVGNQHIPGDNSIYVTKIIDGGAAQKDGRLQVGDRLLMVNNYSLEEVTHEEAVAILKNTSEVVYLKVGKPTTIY

**Q.** With RRVRKLPSTTL [RPS6KA1, Q15418] as the binder, how does the pKd read?
**A.** below the threshold

biological target: SCRIB_2, Q14160; assay: holdup assay; parameters: key: below the threshold = too weak to quantify, mostly under pKd 3.1 to 4; details: plain residues with an end cap or a label only (N-terminal biotin on a linker: ttds)
Sequence (Q14160 857-960): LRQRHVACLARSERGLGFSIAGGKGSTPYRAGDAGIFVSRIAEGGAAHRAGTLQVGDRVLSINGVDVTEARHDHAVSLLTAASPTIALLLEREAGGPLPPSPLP

**Q.** Which pKd does the source give for RRVRKLPSTTL [RPS6KA1, Q15418] here?
**A.** below the threshold

biological target: T12, TJP3_3, O95049; assay: holdup assay; parameters: key: below the threshold = too weak to quantify, mostly under pKd 3.1 to 4; details: plain residues with an end cap or a label only (N-terminal biotin on a linker: ttds)

**Q.** How did the pKd turn out when RRVRKLPSTTL [RPS6KA1, Q15418] was run?
**A.** 3.59
